Experimental data taken from patent US12012615B2, “Method of making induced pluripotent stem cells using p53 inhibitors” (Kyoto University, priority 2008, dated 2024).
Changes are numbered by the printed parent chain. Names and notes keep the numbering of the source.

Legend:
[1] = system: Fibroblasts (MEF) from a fetal p53 hetero-deficient mouse having the Nanog reporter; test: Establishment of iPS cells (GFP-positive colonies) from MEFs with 4 factors and a p53 inhibitor; assay type: cell-based; conditions: 4 factors; 6 nM in medium from day 6; counted on day 20; compared with cells treated with DMSO
Experimental: The effects of a p53 inhibitor on the efficiency of establishment of iPS cells were examined. The retrovirus used for reprogramming was prepared by introducing a retrovirus expression vector (pMXs-Oct3/4, pMXs-Sox2, pMXs-Klf4, pMXs-cMyc) into Plat-E cells that had been sown to a 6-well culture plate (Falcon) at 0.6×10^6 cells per well on the previous day. The culture broth used was DMEM/10% FCS (DMEM (Nacalai tesque) supplemented with 10% fetal bovine serum), and cultured at 37° C. and 5% CO2. For vector transfer, 4.5 μL of the FuGene6 transfection reagent (Roche) was placed in 100 μL of Opti-MEM I Reduced-Serum Medium (Invitrogen), and this mixture was allowed to stand at room temperature for 5 minutes. Thereafter, 1.5 μg of each expression vector was added, and the mixture was further allowed to stand at room temperature for 15 minutes, and then added to Plat-E culture broth. On day 2, the Plat-E supernatant was exchanged with a fresh supply of the medium; on day 3, the culture supernatant was recovered and filtered through a 0.45 μm sterile filter (Whatman), polybrene (Nacalai) was added to obtain a concentration of 4 μg/mL, and this was used as the viral liquid.
Fibroblasts (MEF) were isolated from a fetal p53 hetero-deficient mouse having the Nanog reporter (13.5 days after fertilization). […] GFP-positive colonies were counted on day 20. […]

HDF = test: iPS cell generation from HDF with p53-regulated genes, with or without the p53 shRNA; assay type: cell-based, human; conditions: four factors and the p53 shRNA; colonies counted day 28
p53-null MEF = test: iPS cell generation from p53-null MEF with forced expression of p21; assay type: cell-based, mouse
[2] = system: Fibroblasts (MEFs) from a fetal p53 hetero-deficient mouse having a Nanog reporter; test: Establishment of iPS cells from MEFs with 4 or 3 factors and the dominant negative mutant p53P275S; assay type: cell-based; conditions: compared with mutation-free p53 or DsRedExpress
Experimental: The function of endogenous p53 was inhibited using a dominant negative mutant of p53, and its influence on the efficiency of establishment of iPS cells was investigated. The dominant negative mutant used was p53P275S, prepared by causing a point mutation of the proline at the position 275 located in the genome-binding region of p53 to serine (Annemieke de Vries (2002). PNAS 99, 2948-2953).
The retrovirus used for reprogramming was prepared by introducing retrovirus expression vector (pMXs-Oct3/4, pMXs-Sox2, pMXs-Klf4, pMXs-cMyc, pMXs-p53P275S) into Plat-E cells that had been sown to a 6-well culture plate (Falcon) at 0.6×10^6 cells per well on the previous day (for how to prepare pMXs-p53P275S, see Example 6 below). The culture broth used was DMEM/10% FCS (DMEM (Nacalai tesque) supplemented with 10% fetal bovine serum), and cultured at 37° C. and 5% CO2. For vector transfer, 4.5 μL of the FuGene6 transfection reagent (Roche) was placed in 100 μL of Opti-MEM I Reduced-Serum Medium (Invitrogen), and this mixture was allowed to stand at room temperature for 5 minutes. Thereafter, 1.5 μg of each expression vector was added, and the mixture was further allowed to stand at room temperature for 15 minutes, and then added to Plat-E culture broth. […]
GFP-positive colonies were counted on day 21 for the 4 factors, and on day 28 for the 3 factors. […]

[3] = system: Oct4-GFP, p53-heterozygous MEF; test: iPS generation by the three factors co-transduced with wild-type or mutant p53, p53-heterozygous MEFs; assay type: cell-based, mouse; conditions: retroviral co-transduction, counted 28 days after transduction
Description: (§1) FIGS. 13A and 13B show iPS generation from p53 heterozygous or homozygous MEFs by the three factors co-transduced with wild-type or mutant p53. […] After retroviral transduction, 5000 cells were collected and GFP-positive colonies were counted 28 days after the transduction. Data of three independent experiments are shown. […] After retroviral transduction, 5000 live cells were collected and GFP-positive colonies were counted 28 days after the transduction. Data of two independent experiments are shown.
(§2) We used either the Nanog-GFP or Oct3/4-GFP reporter system for sensitive and specific identification of iPS cells (Okita K. et al. Nature 448, 313 (2007)). […] The cells were infected next day (day 0) with retrovirus made from Plat-E. On day 5, cells were reseeded either at one cell per well of 96-plates by a cell sorter (FACS Aria, Beckton Dekinson) or 5000 cells per 100 mm-dish. Puromycin selection ([…]) was initiated on day 13 in the four-factor protocol and on day 19 in the three factor protocol. Numbers of GFP positive colonies were determined on day 21 for the four-factor protocol and on day 28 in the three factor protocol.
(§3) First, we tested the effect of dominant negative mutants of p53 on the generation of iPS cells. […] After sequencing verification, cDNA was transferred to pMXs-gw by Gateway cloning technology (Invitrogen). […]

Nanog-GFP, p53-null MEFs = test: iPS generation by the three factors co-transduced with wild-type or mutant p53, p53-null MEFs; assay type: cell-based, mouse; conditions: retroviral co-transduction, counted 28 days after transduction
Description: as §1, §2, §3

With `O=[N+]([O-])c1ccc(-c2cn3c4c(sc3n2)CCCC4)cc1` [Pifithrin α, p-Nitro, Cyclic, 2-(4-Nitrophenyl)imidazo[2,1-b]-5,6,7,8-tetrahydrobenzothiazole] the “increase in the number of GFP-positive colonies” value (“increase in the number” below) [1] was “about 4 times”.

In the case of “p21: cyclin-dependent kinase inhibitor 1A (p21, Cip1), p53 target gene, forcibly expressed by retrovirus”, the “counteraction of the effect of the p53 shRNA on iPS cell generation” value (HDF) is reported as “effectively counteracted” and the iPS cell generation (p53-null MEF) is reported as “markedly decreased”.

B1: p53P275S: dominant negative mutant of mouse p53, proline 275 to serine, expressed from retroviral vector pMXs-p53P275S (protein, UniProt P02340 1-390, looked up, variant P275S)
Cellular tumor antigen p53: MTAMEESQSDISLELPLSQETFSGLWKLLPPEDILPSPHCMDDLLLPQDVEEFFEGPSEALRVSGAPAAQDPVTETPGPVAPAPATPWPLSSFVPSQKTYQGNYGFHLGFLQSGTAKSVMCTYSPPLNKLFCQLAKTCPVQLWVSATPPAGSRVRAMAIYKKSQHMTEVVRRCPHHERCSDGDGLAPPQHLIRVEGNLYPEYLEDRQTFRHSVVVPYEPPEAGSEYTTIHYKYMCNSSCMGGMNRRPILTIITLEDSSGNLLGRDSFEVRVCACSGRDRRTEEENFRKKEVLCPELPPGSAKRALPTCTSASPPQKKKPLDGEYFTLKIRGRKRFEMFRELNEALELKDAHATEESGDSRAHSSYLKTKKGQSTSRHKKTMVKKVGPDSD
B1 was tested, and the “increase in the number” value ([2]; 3 factors, counted on day 28) was “about 3 times”, the “increase in the number” value ([2]; 4 factors, counted on day 21) was “about 4 times” and the “number of GFP-positive colonies / efficiency of iPS cell generation” value [3] was “substantial increase”.

B2: D278N: transactivation-negative mouse p53 mutant, aspartic acid 278 to asparagine, retrovirally expressed (protein, UniProt P02340 1-390, looked up, variant D278N)
Cellular tumor antigen p53: B1 Cellular tumor antigen p53 with S275P, D278N
With B2 the “number of GFP-positive colonies” value (Nanog-GFP, p53-null MEFs) was “weaker effects”.

B3: S58A: transactivation-negative mouse p53 mutant, serine 58 to alanine, retrovirally expressed (protein, UniProt P02340 1-390, looked up, variant S58A)
Cellular tumor antigen p53: B1 Cellular tumor antigen p53 with S58A, S275P
In the case of B3, the “number of GFP-positive colonies” value (Nanog-GFP, p53-null MEFs) is reported as “weaker effects”.
